The record followed here is US20200306367A1 (University of Washington, published 2020).

For assay [1], the target named is T1, human CD180 (human, UniProt Q99467 24-661).
T1 construct: whole, on cells; Native CD180 on primary human B cells; also called RP105; Bgp95
T1 sequence: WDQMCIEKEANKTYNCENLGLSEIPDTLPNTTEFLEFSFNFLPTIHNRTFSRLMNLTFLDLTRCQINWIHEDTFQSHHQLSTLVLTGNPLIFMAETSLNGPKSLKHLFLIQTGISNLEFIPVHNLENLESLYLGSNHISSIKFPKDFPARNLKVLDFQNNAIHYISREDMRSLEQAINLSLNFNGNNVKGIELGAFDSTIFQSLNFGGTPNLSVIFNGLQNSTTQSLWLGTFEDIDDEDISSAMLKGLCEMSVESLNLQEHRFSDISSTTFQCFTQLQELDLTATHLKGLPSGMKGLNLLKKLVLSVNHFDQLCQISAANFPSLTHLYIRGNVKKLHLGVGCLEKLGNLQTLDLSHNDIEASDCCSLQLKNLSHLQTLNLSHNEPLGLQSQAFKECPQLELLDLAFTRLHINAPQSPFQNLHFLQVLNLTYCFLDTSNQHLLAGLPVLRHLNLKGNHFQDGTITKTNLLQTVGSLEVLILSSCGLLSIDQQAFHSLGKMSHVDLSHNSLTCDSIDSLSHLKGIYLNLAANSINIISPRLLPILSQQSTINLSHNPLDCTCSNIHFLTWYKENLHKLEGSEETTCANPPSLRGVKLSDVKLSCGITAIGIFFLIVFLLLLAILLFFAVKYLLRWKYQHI
Kind of assay: flow cytometry competition on human B cells; 2.5 ug unlabelled G28-8 first, then 10 ug G28-8-PE.

In assay [2] the target is T1, human CD180. The assay is described as follows: flow cytometry on human B cells (figure legend).

B1: G28-8 anti-human CD180 monoclonal antibody (antibody, V domains shown)
VH: EVQLQQSGPELVKPGASMKISCKASGYSFTGYTMNWVKQSHGKTLEWIGLINPYNGVTSYNQKFKDKATLTVDKSSSTAYMELLSLTSEDSAIYYCARDYNYDYFDYWGQGTTLTVSS
VL: DIQMTQSPASLSASVGETVTITCRASEKIYSYLAWYQQKQGKSPQLLVYNAKTLAEGVPSRFSVSGSGTQFSLRINSLQPEDFGTYYCQHHFGSPRTFGGGTKLEIK
notes: Commercial parent monoclonal antibody, a whole IgG; also called G28-8 mAb; parent G28-8 antibody
Turning to B1, the binding result in assay [1] was “binds”.

B2: G28-8LH-HBcAgY132A-His (scFv)
chain: DIQMTQSPASLSASVGETVTITCRASEKIYSYLAWYQQKQGKSPQLLVYNAKTLAEGVPSRFSVSGSGTQFSLRINSLQPEDFGTYYCQHHFGSPRTFGGGTKLEIKDLGGGGSGGGGSGGGGSGGGGSTGEVQLQQSGPELVKPGASMKISCKASGYSFTGYTMNWVKQSHGKTLEWIGLINPYNGVTSYNQKFKDKATLTVDKSSSTAYMELLSLTSEDSAIYYCARDYNYDYFDYWGQGTTLTVSSGGGGSGGGGSGGGGSGGGGSMDIDPYKEFGASVELLSFLPSDFFPSIRDLLDTASALYREALESPEHCSPHHTALRQAILCWGELMNLATWVGSNLEDPASRELVVSYVNVNMGLKIRQLLWFHISCLTFGRETVLEYLVSFGVWIRTPPAARPPNAPILSTLPETTVVHHHHHH
notes: Anti-human CD180 scFv (VL-VH) fused to HBcAg(1-149) Y132A and a 6xHis tag, made in CHO cells and purified on nickel resin; the tested protein carried it, since it was detected with anti-6xHis; also called aCD180-HBVAg; HBcAg-CD180
Regarding B2, in assay [2], the binding result is given as “binds”.
